Key:
[1] = biological target: T1, CXCR4 and CD4 co-expressed on cells (MOLM-13, THP-1, MT-4, PBMC; Jurkat CD4 low) (human, UniProt P61073 1-352; P01730 26-458); assay: cell-based or functional assay
[2] = biological target: T2, human CXCR4 (on cells, viral lipoparticles or membrane extracts) (human, UniProt P61073 1-352); assay: cell-based or functional assay
[3] = biological target: T1, CXCR4 and CD4 co-expressed on cells …; assay: cell-based or functional assay; remark: listed apart in the source
[4] = biological target: T1, CXCR4 and CD4 co-expressed on cells …; assay: cell-based or functional assay; remark: listed apart in the source
[5] = biological target: T1, CXCR4 and CD4 co-expressed on cells …; assay: flow cytometry on THP-1 cells (CD4 and CXCR4), detection via tag
[6] = biological target: T1, CXCR4 and CD4 co-expressed on cells …; assay: FACS, MOLM-13 cells (CXCR4+/CD4+)
[7] = biological target: T1, CXCR4 and CD4 co-expressed on cells …; assay: FACS, Jurkat E6-1 cells (CXCR4+/CD4 low)
[8] = biological target: T1, CXCR4 and CD4 co-expressed on cells …; assay: cell-based or functional assay; remark: listed apart in the source
[9] = biological target: T1, CXCR4 and CD4 co-expressed on cells …; assay: FACS, THP-1 cells
[10] = biological target: T3, recombinant IL-3Rα ectodomain (human, UniProt P26951 19-305); assay: competition ELISA, coated mAb 7G3 + biotinylated IL-3Rα ectodomain
T3 construct: extracellular domain; also called recombinant IL-3Ra; biotinylated-IL-3Rα ectodomain
T3 sequence (looked up): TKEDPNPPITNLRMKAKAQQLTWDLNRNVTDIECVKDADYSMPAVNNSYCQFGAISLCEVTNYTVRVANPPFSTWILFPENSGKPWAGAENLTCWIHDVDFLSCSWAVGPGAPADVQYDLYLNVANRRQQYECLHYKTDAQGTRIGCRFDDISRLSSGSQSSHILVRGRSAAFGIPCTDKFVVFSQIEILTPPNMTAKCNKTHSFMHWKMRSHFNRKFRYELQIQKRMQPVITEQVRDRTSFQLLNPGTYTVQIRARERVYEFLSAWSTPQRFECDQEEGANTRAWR

[11] = biological target: T4, human IL-3Rα (CD123), cell-expressed (human, UniProt P26951 19-378); assay: FACS, MOLM-13 cells
T4 construct: whole, on cells; also called IL-3Ra; Hek-IL-3Rα

[12] = biological target: T4, human IL-3Rα (CD123), cell-expressed; assay: flow cytometry on Molm-13 cells; EC50(M) printed in the legend box beside the curves
[13] = biological target: T4, human IL-3Rα (CD123), cell-expressed; assay: FACS, THP-1 cells
[14] = biological target: T3, recombinant IL-3Rα ectodomain; assay: SPR ProteOn, immobilised IL-3Rα ectodomain
[15] = biological target: T3, recombinant IL-3Rα ectodomain; assay: ELISA on recombinant IL-3Ra ectodomain (lower right panel)
[16] = biological target: T4, human IL-3Rα (CD123), cell-expressed; assay: FACS, HEK293T-IL-3Rα cells
[17] = biological target: T2, human CXCR4 (on cells, viral …); assay: ELISA on coated CXCR4 viral lipoparticles (both upper panels)
[18] = biological target: T5, CXCR4 and IL-3Rα (CD123) co-expressed on MOLM-13 / THP-1 cells (human, UniProt P61073 1-352; P26951 19-378); assay: flow cytometry on THP-1 cells (CXCR4 and IL-3Ra)
T5 construct: whole, on cells; two separate membrane proteins on one cell, not a complex; target of bispecifics on double-positive cells; also called CXCR4+/CD123+ cells
T5 sequence (P61073 whole entry, one chain of several): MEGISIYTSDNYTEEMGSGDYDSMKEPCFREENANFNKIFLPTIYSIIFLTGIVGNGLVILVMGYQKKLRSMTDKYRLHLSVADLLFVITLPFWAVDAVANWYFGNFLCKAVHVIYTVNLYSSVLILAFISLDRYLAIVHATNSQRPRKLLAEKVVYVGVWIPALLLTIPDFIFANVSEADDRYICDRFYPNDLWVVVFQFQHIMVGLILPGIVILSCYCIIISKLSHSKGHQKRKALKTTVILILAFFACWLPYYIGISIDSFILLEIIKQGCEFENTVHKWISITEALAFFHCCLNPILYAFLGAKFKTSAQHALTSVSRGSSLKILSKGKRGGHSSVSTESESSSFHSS

[19] = biological target: T3, recombinant IL-3Rα ectodomain; assay: ELISA on recombinant IL-3Ra ectodomain (panel 'IL-3Ra ELISA', lower left)
[20] = biological target: T5, CXCR4 and IL-3Rα (CD123) co-expressed …; assay: flow cytometry on MOLM-13 cells (IL-3Ra higher than CXCR4)
[21] = biological target: T2, human CXCR4 (on cells, viral …); assay: cell-based or functional assay; remark: listed apart in the source
[22] = biological target: T2, human CXCR4 (on cells, viral …); assay: flow cytometry at one concentration on Jurkat E6-1 cells (CXCR4+/CD123-), anti-FLAG detection
[23] = biological target: T5, CXCR4 and IL-3Rα (CD123) co-expressed …; assay: flow cytometry at one concentration, 4.6 nM, on MOLM-13 cells (CXCR4+/CD123+), anti-FLAG detection
[24] = biological target: T2, human CXCR4 (on cells, viral …); assay: ELISA on coated CXCR4 viral lipoparticles (panel 'CXCR4 VLP Binding', upper left)

T2 sequence (P61073 whole entry): as the sequence (P61073 whole entry, one chain of several) above
T1 sequence (P61073 whole entry, chain 1 of 2, other chains not shown): as the sequence (P61073 whole entry, one chain of several) above

B1: 03F11-35GS-281F12 (bispecific antibody)
chain: EVQLVESGGGSVQPGGSLTLSCGTSGRTFNVMGWFRQAPGKEREFVAAVRWSSTGIYYTQYADSVKSRFTISRDNAKNTVYLEMNSLKPEDTAVYYCAADTYNSNPARWDGYDFRGQGTQVTVSSGGGGSGGGGSGGGGSGGGGSGGGGSGGGGSGGGGSEVQLVESGGGLVQAGDSLRLSCAASGRAFSRYAMGWFRQAPGKEREFVAAIGWGPSKTNYADSVKGRFTISRDNAKNTVYLQMNTLKPEDTAVYSCAAKFVNTDSTWSRSEMYTYWGQGTQVTVSS
notes: also called CD4#8-35GS-CXCR4#2; CD4#8-CXCR4#2
- IC50, HIV-1 BaL (R5), PBMC [1]: 35.9 nM
- IC50, HIV-1 NL4.3 (X4), MT-4 [1]: 11.7 nM
- IC50, HIV-1 NL4.3 (X4), PBMC [1]: 23.7 nM
- IC50, HIV-1 NL4.3 (X4), U87 [1]: > 3330 nM
- Fold increase vs CXCR4#2, Jurkat E6-1 [2]: 0.2 fold
- Fold increase vs CXCR4#2, MOLM-13 [2]: 67 fold
- IC50, SDF-1 chemotaxis, Jurkat E6-1 [2]: 460 nM
- IC50, SDF-1 chemotaxis, MOLM-13 [2]: 1.29 nM
- IC50, HIV-1 NL4.3 wt, MT-4 [3]: 6 nM
- IC50, NL4.3 2G12 res., MT-4 [3]: 3 nM
- IC50, NL4.3 AMD-3100 res., MT-4 [3]: 14 nM
- IC50, NL4.3 CD4#8 res., MT-4 [3]: 95.7 nM
- IC50, NL4.3 CXCL-12res., MT-4 [3]: 70 nM
- IC50, NL4.3 CXCR4#2 res, MT-4 [3]: > 310 nM
- IC50, HIV-1 HE, MT-4 [4]: 2 nM
- IC50, HIV-1 NL4.3, MT-4 [4]: 6 nM
- IC50, HIV-2 ROD, MT-4 [4]: 8.75 nM
- EC50 (read off the curve) [5]: ~1 nM
- EC50 [6]: 0.7 nM
- EC50 [7]: 1.1 nM

B2: 281F12-35GS-03F11 (bispecific antibody)
chain: EVQLVESGGGLVQAGDSLRLSCAASGRAFSRYAMGWFRQAPGKEREFVAAIGWGPSKTNYADSVKGRFTISRDNAKNTVYLQMNTLKPEDTAVYSCAAKFVNTDSTWSRSEMYTYWGQGTQVTVSSGGGGSGGGGSGGGGSGGGGSGGGGSGGGGSGGGGSEVQLVESGGGSVQPGGSLTLSCGTSGRTFNVMGWFRQAPGKEREFVAAVRWSSTGIYYTQYADSVKSRFTISRDNAKNTVYLEMNSLKPEDTAVYYCAADTYNSNPARWDGYDFRGQGTQVTVSS
notes: also called CXCR4#2-35GS-CD4#8; CXCR4#2-CD4#8
- IC50, HIV-1 BaL (R5), PBMC [1]: 2.46 nM
- IC50, HIV-1 NL4.3 (X4), MT-4 [1]: 0.24 nM
- IC50, HIV-1 NL4.3 (X4), PBMC [1]: 0.37 nM
- IC50, HIV-1 NL4.3 (X4), U87 [1]: 2.67 nM
- Fold increase vs CXCR4#2, Jurkat E6-1 [2]: 0.8 fold
- Fold increase vs CXCR4#2, MOLM-13 [2]: 146 fold
- IC50, SDF-1 chemotaxis, Jurkat E6-1 [2]: 110 nM
- IC50, SDF-1 chemotaxis, MOLM-13 [2]: 0.59 nM
- IC50, HIV-1 NL4.3 wt, MT-4 [3]: 0.187 nM
- IC50, NL4.3 2G12 res., MT-4 [3]: 0.11 nM
- IC50, NL4.3 AMD-3100 res., MT-4 [3]: 1.13 nM
- IC50, NL4.3 CD4#8 res., MT-4 [3]: 0.31 nM
- IC50, NL4.3 CXCL-12res., MT-4 [3]: 0.433 nM
- IC50, NL4.3 CXCR4#2 res, MT-4 [3]: 1.4 nM
- IC50, HIV-1 HE, MT-4 [4]: 0.0906 nM
- IC50, HIV-1 NL4.3, MT-4 [4]: 0.187 nM
- IC50, HIV-2 ROD, MT-4 [4]: 0.3 nM
- EC50 [6]: 1.1 nM
- EC50 [7]: 11 nM
- enhancement vs monovalent CD4#8, HIV-1 BaL, PBMC [8]: ~200 fold
- EC50 [9]: 0.67 nM

B3: 57A07 (VHH)
VHH: EVQLVESGGGLVQAGGSLRLSCAASGSIFSGNVMGWYRRQAPGKEREWVAAIASGGSIYYRDSVKGRFTISRDNAKNTVYLQMNSLKPEDTAVYYCNSHPPTLPYWGLGTQVTVSS
notes: also called CD123#1; A0110057A07
- IC50 [10]: 1.2 nM
- EC50 [11]: 0.66 nM
- EC50 [12]: 0.67 nM
- EC50 [13]: 1.3 nM
- Kd [14]: 0.783 nM
- koff [14]: 0.00081 s⁻¹
- kon [14]: 1e+06 M⁻¹ s⁻¹
- EC50 (read off the curve) [15]: ~500 pM
- EC50 [16]: 0.24 nM
- binding result [17]: no binding (tested: about 1E-5 M)

B4: 281F12-35GS-55A01 (bispecific antibody)
chain: EVQLVESGGGLVQAGDSLRLSCAASGRAFSRYAMGWFRQAPGKEREFVAAIGWGPSKTNYADSVKGRFTISRDNAKNTVYLQMNTLKPEDTAVYSCAAKFVNTDSTWSRSEMYTYWGQGTLVTVSSGGGGSGGGGSGGGGSGGGGSGGGGSGGGGSGGGGSEVQLVESGGGSVQAGGSLRLSCTTSGRALNMYVMGWFRQAPGNEREFVAATSSSGGSTSYPDSVKGRFTISRDNAKNTVYLQMNSLKPEDTAAYRCAASPYVSTPTMNILEEYRYWGQGTLVTVSS
notes: also called CXCR4#2-CD123#2; 281F12-55A01
- EC50 (read off the curve) [18]: ~10 nM
- EC50 (read off the curve) [19]: ~1 nM
- EC50 (read off the curve) [20]: ~10 nM
- Fold inc. vs CXCR4#2, Jurkat E6-1 [21]: 1.13 fold
- Fold inc. vs CXCR4#2, MOLM-13 [21]: 10.9 fold
- IC50, CXCL-12 chemotaxis, Jurkat E6-1 [21]: 86 nM
- IC50, CXCL-12 chemotaxis, MOLM-13 [21]: 7.85 nM

B5: 55A01 (VHH)
VHH: EVQLVESGGGSVQAGGSLRLSCTTSGRALNMYVMGWFRQAPGNEREFVAATSSSGGSTSYPDSVKGRFTISRDNAKNTVYLQMNSLKPEDTAAYRCAASPYVSTPTMNILEEYRYWGLGTQVTVSS
notes: also called CD123#2; A0110055A01
- IC50 [10]: 40 nM
- EC50 [11]: 8.2 nM
- EC50 [12]: 13 nM
- EC50 [13]: 11 nM
- Kd [14]: 17.1 nM
- koff [14]: 0.0014 s⁻¹
- kon [14]: 84000 M⁻¹ s⁻¹
- EC50 (read off the curve) [19]: ~1 nM
- EC50 [16]: 1.1 nM
- binding result [22]: no binding (tested: 4.6 nM)

B6: 57A07-35GS-281F12 (bispecific antibody)
chain: EVQLVESGGGLVQAGGSLRLSCAASGSIFSGNVMGWYRRQAPGKEREWVAAIASGGSIYYRDSVKGRFTISRDNAKNTVYLQMNSLKPEDTAVYYCNSHPPTLPYWGQGTLVTVSSGGGGSGGGGSGGGGSGGGGSGGGGSGGGGSGGGGSEVQLVESGGGLVQAGDSLRLSCAASGRAFSRYAMGWFRQAPGKEREFVAAIGWGPSKTNYADSVKGRFTISRDNAKNTVYLQMNTLKPEDTAVYSCAAKFVNTDSTWSRSEMYTYWGQGTLVTVSS
notes: FLAG3-His6 also made; also called CD123#1-CXCR4#2; 57A07-281F12
- EC50 (read off the curve) [15]: ~500 pM
- binding result [23]: binds
- binding result [24]: binds
